From patent publication US20210388087A1 (Chugai, published 2021)
Substitutions are numbered along the chain they refer to. In names and notes the source's numbering stands.

B1: CE115HA000 H35A (antibody, human IgG1, kappa, L234A L235A, N297A, name in Kabat numbering)
heavy: QVQLVESGGGVVQPGRSLRLSCAASGFTFSNAWMAWVRQAPGKGLEWVAQIKAKSNNYATYYAESVKGRFTISRDDSKNSLYLQMNSLKTEDTAVYYCRYVHYGAYYGVDAWGQGTTVTVSSASTKGPSVFPLAPSSKSTSGGTAALGCLVKDYFPEPVTVSWNSGALTSGVHTFPAVLQSSGLYSLSSVVTVPSSSLGTQTYICNVNHKPSNTKVDKKVEPKSCDKTHTCPPCPAPEAAGGPSVFLFPPKPKDTLMISRTPEVTCVVVDVSHEDPEVKFNWYVDGVEVHNAKTKPREEQYASTYRVVSVLTVLHQDWLNGKEYKCKVSNKALPAPIEKTISKAKGQPREPQVYTLPPSRCELTKNQVSLSCAVKGFYPSDIAVEWESNGQPENNYKTTPPVLDSDGSFFLVSKLTVDKSRWQQGNVFSCSVMHEALHNHYTQKSLSLSPDYKDDDDK
chain: EPKSSDKTHTCPPCPAPELLGGPSVFLFPPKPKDTLMISRTPEVTCVVVDVSHEDPEVKFNWYVDGVEVHNAKTKPREEQYNSTYRVVSVLTVLHQDWLNGKEYKCKVSNKALPAPIEKTISKAKGQPREPQVCTLPPSRDELTKNQVSLWCLVKGFYPSDIAVEWESNGQPENNYKTTPPVLDSDGSFFLYSKLTVDKSRWQQGNVFSCSVMHEALHNRYTQKSLSLSP
light: DIVMTQSPLSLPVTPGEPASISCRSSQSLVHSNRNTYLHWYQQKPGQAPRLLIYKVSNRFSGVPDRFSGSGSGTDFTLKISRVEAEDVGVYYCGQGTQVPYTFGQGTKLEIKRTVAAPSVFIFPPSDEQLKSGTASVVCLLNNFYPREAKVQWKVDNALQSGNSQESVTEQDSKDSTYSLSSTLTLSKADYEKHKVYACEVTHQGLSSPVTKSFNRGEC
notes: one-arm antibody
B2: CE115HA000 A52aV (antibody, human IgG1, kappa, L234A L235A, N297A, name in Kabat numbering)
heavy: B1 heavy with A35H, A53V
chain: B1 chain
light: B1 light
notes: one-arm antibody
B3: CE115HA000 A56K (antibody, human IgG1, kappa, L234A L235A, N297A, name in Kabat numbering)
heavy: B1 heavy with A35H, A59K
chain: B1 chain
light: B1 light
notes: one-arm antibody
B4: CE115HA000 A56Q (antibody, human IgG1, kappa, L234A L235A, N297A, name in Kabat numbering)
heavy: B1 heavy with A35H, A59Q
chain: B1 chain
light: B1 light
notes: one-arm antibody
B5: CE115HA000 A52aS (antibody, human IgG1, kappa, L234A L235A, N297A, name in Kabat numbering)
heavy: B1 heavy with A35H, A53S
chain: B1 chain
light: B1 light
notes: one-arm antibody
B6: CE115HA000 A52aD (antibody, human IgG1, kappa, L234A L235A, N297A, name in Kabat numbering)
heavy: B1 heavy with A35H, A53D
chain: B1 chain
light: B1 light
notes: one-arm antibody
B7: CE115HA000 A52aY (antibody, human IgG1, kappa, L234A L235A, N297A, name in Kabat numbering)
heavy: B1 heavy with A35H, A53Y
chain: B1 chain
light: B1 light
notes: one-arm antibody
B8: CE115HA000 A52aE (antibody, human IgG1, kappa, L234A L235A, N297A, name in Kabat numbering)
heavy: B1 heavy with A35H, A53E
chain: B1 chain
light: B1 light
notes: one-arm antibody
B9: CE115HA000 A56G (antibody, human IgG1, kappa, L234A L235A, N297A, name in Kabat numbering)
heavy: B1 heavy with A35H, A59G
chain: B1 chain
light: B1 light
notes: one-arm antibody
B10: CE115HA000 A32Y (antibody, human IgG1, kappa, L234A L235A, N297A, name in Kabat numbering)
heavy: B1 heavy with A32Y, A35H
chain: B1 chain
light: B1 light
notes: one-arm antibody
B11: CE115HA000 A52aG (antibody, human IgG1, kappa, L234A L235A, N297A, name in Kabat numbering)
heavy: B1 heavy with A35H, A53G
chain: B1 chain
light: B1 light
notes: one-arm antibody
B12: CE115HA000 A56Y (antibody, human IgG1, kappa, L234A L235A, N297A, name in Kabat numbering)
heavy: B1 heavy with A35H, A59Y
chain: B1 chain
light: B1 light
notes: one-arm antibody
B13: CE115HA000 A56L (antibody, human IgG1, kappa, L234A L235A, N297A, name in Kabat numbering)
heavy: B1 heavy with A35H, A59L
chain: B1 chain
light: B1 light
notes: one-arm antibody
B14: CE115HA000 A52aP (antibody, human IgG1, kappa, L234A L235A, N297A, name in Kabat numbering)
heavy: B1 heavy with A35H, A53P
chain: B1 chain
light: B1 light
notes: one-arm antibody
B15: CE115HA000 A56N (antibody, human IgG1, kappa, L234A L235A, N297A, name in Kabat numbering)
heavy: B1 heavy with A35H, A59N
chain: B1 chain
light: B1 light
notes: one-arm antibody
B16: CE115HA000 A56D (antibody, human IgG1, kappa, L234A L235A, N297A, name in Kabat numbering)
heavy: B1 heavy with A35H, A59D
chain: B1 chain
light: B1 light
notes: one-arm antibody
B17: CE115HA000 Y100G one-arm antibody (antibody, human IgG1, kappa, L234A L235A, N297A, name in Kabat numbering)
heavy: B1 heavy with A35H, Y106G
chain: B1 chain
light: B1 light
B18: CE115HA000 Y100aS one-arm antibody (antibody, human IgG1, kappa, L234A L235A, N297A, name in Kabat numbering)
heavy: B1 heavy with A35H, Y107S
chain: B1 chain
light: B1 light
B19: CE115HA000 Y100Q one-arm antibody (antibody, human IgG1, kappa, L234A L235A, N297A, name in Kabat numbering)
heavy: B1 heavy with A35H, Y106Q
chain: B1 chain
light: B1 light
B20: CE115HA000 Y100aQ one-arm antibody (antibody, human IgG1, kappa, L234A L235A, N297A, name in Kabat numbering)
heavy: B1 heavy with A35H, Y107Q
chain: B1 chain
light: B1 light
B21: CE115HA000 Y100aA one-arm antibody (antibody, human IgG1, kappa, L234A L235A, N297A, name in Kabat numbering)
heavy: B1 heavy with A35H, Y107A
chain: B1 chain
light: B1 light
B22: CE115HA000 Y100aF one-arm antibody (antibody, human IgG1, kappa, L234A L235A, N297A, name in Kabat numbering)
heavy: B1 heavy with A35H, Y107F
chain: B1 chain
light: B1 light
B23: CE115HA000 Y100aG one-arm antibody (antibody, human IgG1, kappa, L234A L235A, N297A, name in Kabat numbering)
heavy: B1 heavy with A35H, Y107G
chain: B1 chain
light: B1 light
B24: CE115HA000 Y100K one-arm antibody (antibody, human IgG1, kappa, L234A L235A, N297A, name in Kabat numbering)
heavy: B1 heavy with A35H, Y106K
chain: B1 chain
light: B1 light
B25: CE115HA000 Y100L one-arm antibody (antibody, human IgG1, kappa, L234A L235A, N297A, name in Kabat numbering)
heavy: B1 heavy with A35H, Y106L
chain: B1 chain
light: B1 light
B26: CE115HA000 Y100W one-arm antibody (antibody, human IgG1, kappa, L234A L235A, N297A, name in Kabat numbering)
heavy: B1 heavy with A35H, Y106W
chain: B1 chain
light: B1 light
B27: CE115HA000 Y100aD one-arm antibody (antibody, human IgG1, kappa, L234A L235A, N297A, name in Kabat numbering)
heavy: B1 heavy with A35H, Y107D
chain: B1 chain
light: B1 light
B28: CE115HA000 Y100aL one-arm antibody (antibody, human IgG1, kappa, L234A L235A, N297A, name in Kabat numbering)
heavy: B1 heavy with A35H, Y107L
chain: B1 chain
light: B1 light
B29: CE115HA000 Y100S one-arm antibody (antibody, human IgG1, kappa, L234A L235A, N297A, name in Kabat numbering)
heavy: B1 heavy with A35H, Y106S
chain: B1 chain
light: B1 light
B30: CE115HA000 Y100aK one-arm antibody (antibody, human IgG1, kappa, L234A L235A, N297A, name in Kabat numbering)
heavy: B1 heavy with A35H, Y107K
chain: B1 chain
light: B1 light
B31: CE115HA000 Y100V one-arm antibody (antibody, human IgG1, kappa, L234A L235A, N297A, name in Kabat numbering)
heavy: B1 heavy with A35H, Y106V
chain: B1 chain
light: B1 light
B32: CE115HA000 Y100P one-arm antibody (antibody, human IgG1, kappa, L234A L235A, N297A, name in Kabat numbering)
heavy: B1 heavy with A35H, Y106P
chain: B1 chain
light: B1 light

These binders were tested against T1, CD3 epsilon homodimer protein (UniProt P07766 23-126) (assay: SPR, CD3 epsilon homodimer on chip, one-arm antibody as analyte;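 further: surface plasmon resonance at 25 °C with CD3 epsilon homodimer amine-coupled to a CM4 sensor chip, antibody injected as analyte, HBS-EP+ as running buffer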).
T1 construct: also called CD3 (CD3 epsilon)
T1 sequence (P07766 23-126): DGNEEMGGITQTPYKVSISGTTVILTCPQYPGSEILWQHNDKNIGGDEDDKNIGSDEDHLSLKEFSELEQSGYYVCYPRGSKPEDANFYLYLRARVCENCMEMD

Point of comparison: B4, “KD ratio (KD of CE115HA000/KD of altered form)” value 0.74. Against it:
- B1 — higher, 25
- B2 — higher, 0.95
- B3 — higher, 1.32
- B5 — higher, 0.82
- B6 — higher, 1.35
- B7 — higher, 7.71
- B8 — higher, 0.89
- B9 — lower, 0.59
- B10 — higher, 2.11
- B11 — lower, 0.61
- B12 — lower, 0.63
- B13 — higher, 0.77
- B14 — higher, 5
- B15 — higher, 0.84
- B16 — lower, 0.71

What follows are binders tested against T2, CD3 epsilon homodimer protein (UniProt P07766 23-126) (assay: SPR (Biacore T200), CD3 epsilon homodimer on CM4 chip, one-arm antibody as analyte, 25 C;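 further: homodimer attached to the sensor surface via amine coupling, HBS-EP+ used as running buffer during binding runs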).
T2 construct: immobilized on Sensor chip CM4 by amine coupling; also called CD3 (CD3 epsilon)
T2 sequence (P07766 23-126): as above

Point of comparison: B31, “ratio of amounts bound (altered form / CE115HA000)” value 0.6. Against it:
- B17 — higher, 1.07
- B18 — higher, 0.64
- B19 — higher, 0.8
- B20 — lower, 0.56
- B21 — higher, 0.62
- B22 — higher, 0.87
- B23 — higher, 1.23
- B24 — higher, 1.07
- B25 — higher, 0.7
- B26 — higher, 1.03
- B27 — lower, 0.31
- B28 — lower, 0.48
- B29 — higher, 0.81
- B30 — higher, 0.9
- B32 — lower, 0.48
